Results: the Human Domainome abundance scans (Beltran et al. 2025)
± gives the uncertainty stated by the source.

B1: Homeobox protein cut-like 2, residues 895 to 963; numbered along this chain, O14529 (parent)
chain: EVDTLELTRQVKEKLAKNGICQRIFGEKVLGLSQGSVSDMLSRPKPWSKLTQKGREPFIRMQLWLSDQL

Variants of: B1
Assay: abundance fitness (aPCA) (normalised: wild type 0, dead -1); higher = more abundant; growth selection in yeast, the domain comes from the species named
Conditions: Homo sapiens
K17C gave an abundance fitness of -0.2 ± 0.083.
For K17A, the abundance fitness was -0.086 ± 0.046.
For K17D, the abundance fitness was -0.175 ± 0.05.
Variant K17F has an abundance fitness of -0.267 ± 0.056.
For L7Q, the abundance fitness was -0.124 ± 0.042.
Variant L7N has an abundance fitness of 0.034 ± 0.089.
L7A showed an abundance fitness of -0.125 ± 0.04.
With L7M the abundance fitness was 0.055 ± 0.037.
Work on L7D yielded an abundance fitness of -0.074 ± 0.076.
L7H gave an abundance fitness of -0.246 ± 0.073.
L7R gave an abundance fitness of -0.045 ± 0.03.
Work on L7T yielded an abundance fitness of -0.077 ± 0.041.
Work on L7I yielded an abundance fitness of -0.058 ± 0.067.
In the case of L7W, the abundance fitness is reported as -0.215 ± 0.031.
L7E gave an abundance fitness of 0.016 ± 0.051.
With L7C the abundance fitness was -0.164 ± 0.051.
For L7S, the abundance fitness was -0.041 ± 0.032.
Work on L7F yielded an abundance fitness of -0.141 ± 0.048.
Variant L7K has an abundance fitness of 0.032 ± 0.04.
Work on L7V yielded an abundance fitness of -0.023 ± 0.032.
Work on L7P yielded an abundance fitness of -0.103 ± 0.036.
For R9Y, the abundance fitness was -0.261 ± 0.059.
In the case of R9P, the abundance fitness is reported as -0.137 ± 0.047.
R9S showed an abundance fitness of -0.16 ± 0.033.
R9A gave an abundance fitness of -0.044 ± 0.033.
With R9T the abundance fitness was -0.135 ± 0.047.
Variant R9F has an abundance fitness of -0.181 ± 0.046.
R9E showed an abundance fitness of -0.1 ± 0.034.
Work on R9L yielded an abundance fitness of -0.162 ± 0.028.
In the case of R9W, the abundance fitness is reported as -0.385 ± 0.03.
With R9C the abundance fitness was -0.21 ± 0.042.
R9M showed an abundance fitness of 0.006 ± 0.036.
For R9V, the abundance fitness was -0.15 ± 0.027.
With R9D the abundance fitness was -0.21 ± 0.059.
In the case of R9G, the abundance fitness is reported as -0.129 ± 0.026.
R9H showed an abundance fitness of -0.358 ± 0.1.
With R9N the abundance fitness was -0.068 ± 0.065.
For R9Q, the abundance fitness was -0.132 ± 0.045.
Variant R9K has an abundance fitness of -0.086 ± 0.044.
In the case of E1L, the abundance fitness is reported as -0.3 ± 0.045.
Work on E1N yielded an abundance fitness of -0.067 ± 0.13.
E1F showed an abundance fitness of -0.079 ± 0.17.
With E1T the abundance fitness was -0.247 ± 0.075.
E1D gave an abundance fitness of -0.457 ± 0.093.
Variant E1K has an abundance fitness of -0.026 ± 0.067.
Variant E1C has an abundance fitness of 0.037 ± 0.17.
E1H gave an abundance fitness of -0.149 ± 0.27.
With E1M the abundance fitness was 0.034 ± 0.046.
Work on E1W yielded an abundance fitness of -0.239 ± 0.088.
E1Q showed an abundance fitness of -0.278 ± 0.12.
Work on E1A yielded an abundance fitness of -0.122 ± 0.054.
Work on E1V yielded an abundance fitness of -0.213 ± 0.038.
In the case of E1S, the abundance fitness is reported as -0.063 ± 0.12.
K14H gave an abundance fitness of -0.009 ± 0.062.
Variant K14I has an abundance fitness of -0.022 ± 0.051.
In the case of K14Y, the abundance fitness is reported as -0.045 ± 0.068.
Variant K14A has an abundance fitness of -0.064 ± 0.075.
K14L showed an abundance fitness of 0.009 ± 0.027.
For K14N, the abundance fitness was -0.249 ± 0.081.
Variant K14R has an abundance fitness of -0.062 ± 0.067.
K14M showed an abundance fitness of 0.066 ± 0.033.
In the case of K14E, the abundance fitness is reported as -0.073 ± 0.071.
With K14V the abundance fitness was -0.03 ± 0.037.
Variant K14S has an abundance fitness of -0.154 ± 0.057.
K14T showed an abundance fitness of 0.077 ± 0.069.
K14G showed an abundance fitness of -0.589 ± 0.16.
K14P showed an abundance fitness of -0.208 ± 0.091.
Work on K14F yielded an abundance fitness of 0.102 ± 0.056.
In the case of K14Q, the abundance fitness is reported as -0.012 ± 0.036.
K14W showed an abundance fitness of -0.094 ± 0.091.
Work on K14D yielded an abundance fitness of -0.55 ± 0.12.
Work on V11I yielded an abundance fitness of -0.18 ± 0.092.
V11N gave an abundance fitness of -0.153 ± 0.083.
For V11D, the abundance fitness was -0.065 ± 0.073.
Work on V11C yielded an abundance fitness of -0.465 ± 0.083.
In the case of V11A, the abundance fitness is reported as -0.224 ± 0.041.
Work on V11Q yielded an abundance fitness of -0.218 ± 0.04.
V11K showed an abundance fitness of -0.081 ± 0.035.
For V11E, the abundance fitness was -0.192 ± 0.039.
Work on V11T yielded an abundance fitness of -0.171 ± 0.049.
V11H gave an abundance fitness of -0.23 ± 0.07.
With V11M the abundance fitness was -0.162 ± 0.041.
V11P showed an abundance fitness of -0.141 ± 0.051.
V11R gave an abundance fitness of -0.125 ± 0.029.
Variant V11G has an abundance fitness of -0.146 ± 0.029.
Work on V11Y yielded an abundance fitness of -0.326 ± 0.15.
Variant V11L has an abundance fitness of -0.27 ± 0.035.
Variant V11S has an abundance fitness of -0.166 ± 0.037.
V11W gave an abundance fitness of -0.313 ± 0.034.
In the case of V11F, the abundance fitness is reported as -0.239 ± 0.062.
E13Q gave an abundance fitness of -0.248 ± 0.053.
In the case of E13A, the abundance fitness is reported as -0.072 ± 0.044.
For E13N, the abundance fitness was -0.116 ± 0.09.
In the case of E13C, the abundance fitness is reported as -0.205 ± 0.091.
In the case of E13R, the abundance fitness is reported as -0.101 ± 0.041.
For E13H, the abundance fitness was -0.155 ± 0.08.
With E13P the abundance fitness was -0.135 ± 0.049.
Work on E13V yielded an abundance fitness of -0.235 ± 0.041.
Work on E13D yielded an abundance fitness of 0.117 ± 0.092.
E13I gave an abundance fitness of -0.139 ± 0.056.
Variant E13T has an abundance fitness of -0.144 ± 0.05.
Work on E13M yielded an abundance fitness of -0.008 ± 0.031.
With E13G the abundance fitness was -0.2 ± 0.046.
For E13L, the abundance fitness was -0.138 ± 0.024.
With E13S the abundance fitness was -0.129 ± 0.037.
E13K showed an abundance fitness of -0.101 ± 0.043.
Work on E13W yielded an abundance fitness of -0.357 ± 0.047.
E13F showed an abundance fitness of -0.182 ± 0.034.
Variant E13Y has an abundance fitness of -0.08 ± 0.062.
T8L gave an abundance fitness of -0.157 ± 0.026.
Variant T8K has an abundance fitness of -0.063 ± 0.041.
T8A gave an abundance fitness of -0.064 ± 0.045.
With T8V the abundance fitness was 0.041 ± 0.032.
T8N showed an abundance fitness of -0.158 ± 0.058.
In the case of T8Y, the abundance fitness is reported as -0.309 ± 0.056.
T8Q gave an abundance fitness of -0.333 ± 0.039.
T8H gave an abundance fitness of -0.19 ± 0.046.
Variant T8W has an abundance fitness of -0.206 ± 0.032.
T8S gave an abundance fitness of -0.115 ± 0.031.
For T8F, the abundance fitness was -0.143 ± 0.04.
Variant T8C has an abundance fitness of -0.022 ± 0.035.
Variant T8I has an abundance fitness of -0.107 ± 0.044.
T8R gave an abundance fitness of -0.136 ± 0.029.
For T8D, the abundance fitness was -0.214 ± 0.073.
With T8P the abundance fitness was -0.185 ± 0.038.
For T8E, the abundance fitness was -0.242 ± 0.045.
Work on T8G yielded an abundance fitness of -0.204 ± 0.04.
Q10H showed an abundance fitness of -0.228 ± 0.057.
For Q10S, the abundance fitness was -0.155 ± 0.03.
In the case of Q10V, the abundance fitness is reported as -0.164 ± 0.043.
With Q10L the abundance fitness was -0.018 ± 0.026.
In the case of Q10F, the abundance fitness is reported as -0.244 ± 0.04.
Work on Q10D yielded an abundance fitness of 0.005 ± 0.11.
For Q10E, the abundance fitness was -0.214 ± 0.095.
In the case of Q10N, the abundance fitness is reported as -0.128 ± 0.046.
Q10C showed an abundance fitness of -0.343 ± 0.082.
Work on Q10M yielded an abundance fitness of 0.082 ± 0.033.
With Q10R the abundance fitness was -0.038 ± 0.055.
Variant Q10Y has an abundance fitness of -0.313 ± 0.05.
With Q10A the abundance fitness was -0.23 ± 0.092.
For Q10P, the abundance fitness was -0.158 ± 0.039.
Q10K gave an abundance fitness of 0.07 ± 0.036.
In the case of E6G, the abundance fitness is reported as -0.111 ± 0.027.
Variant E6I has an abundance fitness of -0.196 ± 0.077.
Variant E6Y has an abundance fitness of -0.158 ± 0.059.
Variant E6V has an abundance fitness of -0.191 ± 0.028.
Work on E6M yielded an abundance fitness of -0.192 ± 0.035.
E6S showed an abundance fitness of -0.095 ± 0.047.
In the case of E6A, the abundance fitness is reported as -0.123 ± 0.052.
In the case of E6Q, the abundance fitness is reported as -0.258 ± 0.12.
For E6R, the abundance fitness was -0.162 ± 0.034.
For E6K, the abundance fitness was -0.035 ± 0.045.
E6T gave an abundance fitness of -0.129 ± 0.08.
E6D showed an abundance fitness of 0.096 ± 0.055.
In the case of E6N, the abundance fitness is reported as -0.055 ± 0.1.
In the case of E6C, the abundance fitness is reported as -0.231 ± 0.042.
In the case of E6W, the abundance fitness is reported as -0.173 ± 0.029.
With E6H the abundance fitness was -0.142 ± 0.34.
In the case of E6F, the abundance fitness is reported as -0.192 ± 0.053.
With L15F the abundance fitness was -0.157 ± 0.043.
With L15D the abundance fitness was -0.211 ± 0.048.
For L15R, the abundance fitness was -0.069 ± 0.045.
L15K gave an abundance fitness of 0.029 ± 0.038.
L15T gave an abundance fitness of -0.343 ± 0.32.
L15V gave an abundance fitness of -0.154 ± 0.027.
Work on L15G yielded an abundance fitness of -0.113 ± 0.027.
Variant L15N has an abundance fitness of -0.184 ± 0.059.
